Experimental data reported in patent publication US20060078550.

Target: human prothrombin, P00734

B1: recombinant His-tagged porcine fgl2 protein generated by pfgl2bv infection of insect cells (protein)
chain: MKLKLSNWCWLSSAVLAAYGFLVVANNETEEIKDEAAKDACPVRLESRGKCEEVGGCPYQVNLPPLTLQLPKQFGRIEEVFKEVQNLKEIVNSLKKTCQDCRLQADDNRDPGRNGLLSPGTGAPGEADDSRVRELENEVNKLSSDLKNAKEEIDGLQGRLEKLSLVNMNNIENYVDNKVANLTFAVNSLDGKCSSRCPSQEQIQSRPVQHLIYKDCSEYYTIGKRSSEIYRVTPDPKNSSFEVYCDMETMGGGWTVLQARLDGSTNFTRTWRDYKVGFGNLRREFWLGNDKIHLLTKSKDMILRIDLEDFNGIKLYALYDHFYVANEFLKYRLHIGNYNGTAGDALRFSKHYNHDMKYFTTPDRDNDRYPSGNCGLYYSSGWWFDACLSANLNGKYYNQKYRGVRNGIFWGTWPGISEAQPGGYRSSFKEAKMMIRPKYFKP
thrombin activity (chromogenic substrate Chromozym TH, change in OD 405 nm over time): A significant level of thrombin activity was generated by pfgl2bv-infected cell lysates in contrast to wild-type baculovirus-infected and uninfected controls
